Test results from patent publication US20030108554A1 (published 2003).
Blank lines part the entries; values can stand above or below the binder they belong to.

Columns and labels:
pol κ = target: T1, pol κ (UniProt Q9UBT6 1-870); test: yeast two-hybrid
T1 construct: Tested in yeast two-hybrid (GAL4 domain fusion); also called primary protein product of the POLK
T1 sequence (looked up): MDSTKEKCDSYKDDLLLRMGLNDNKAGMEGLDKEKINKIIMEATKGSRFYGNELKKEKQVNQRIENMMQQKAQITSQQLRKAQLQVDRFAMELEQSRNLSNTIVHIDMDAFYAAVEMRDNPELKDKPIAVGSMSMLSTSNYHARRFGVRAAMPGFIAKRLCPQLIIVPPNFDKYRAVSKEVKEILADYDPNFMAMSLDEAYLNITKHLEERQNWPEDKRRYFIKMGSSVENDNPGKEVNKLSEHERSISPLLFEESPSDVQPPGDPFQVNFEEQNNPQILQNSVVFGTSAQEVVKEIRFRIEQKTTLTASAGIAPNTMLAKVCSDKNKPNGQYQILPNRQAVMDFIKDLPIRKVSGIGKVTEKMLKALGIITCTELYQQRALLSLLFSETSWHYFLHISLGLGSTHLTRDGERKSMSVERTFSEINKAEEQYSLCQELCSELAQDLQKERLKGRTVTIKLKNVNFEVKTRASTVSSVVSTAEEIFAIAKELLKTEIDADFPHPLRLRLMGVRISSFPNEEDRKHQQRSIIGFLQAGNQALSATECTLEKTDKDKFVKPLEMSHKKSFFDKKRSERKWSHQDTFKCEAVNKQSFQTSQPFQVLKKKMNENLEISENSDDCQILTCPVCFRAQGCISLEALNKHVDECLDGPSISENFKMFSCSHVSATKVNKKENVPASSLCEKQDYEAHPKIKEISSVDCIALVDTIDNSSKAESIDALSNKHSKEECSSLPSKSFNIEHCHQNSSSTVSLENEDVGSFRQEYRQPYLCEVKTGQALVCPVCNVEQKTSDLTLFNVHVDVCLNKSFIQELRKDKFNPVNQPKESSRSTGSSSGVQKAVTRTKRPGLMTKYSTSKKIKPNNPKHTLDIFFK

[1] = target: the molecule itself; test: yeast two-hybrid with I-20 deletion mutants
Method: The production of additional I-20 deletion mutants and their use in specific two hybrid studies permitted the identification of two specific regions of I-20 that are essential for GPBP interaction as well as the identification of other residues directly involved but not essential for the interaction (FIG. 4).
Deletion mutants were obtained using specific primers and PCR, followed by cloning of the resulting cDNAs in the pGBT9 and pGAD424 vectors. The assays were performed in SFY526 or HF7c Saccharomyces cerevisiae strains, with pGBT9 as GAL4 binding domain vector and pGAD424 as GAL4 activation domain vector, by the lift colony assay procedure. Briefly, the yeast cells were co-transformed with constructs of both binding domain and activation domain vectors, and the co-transformants were selected in medium deficient in both tryptophan and leucine. After five days of incubation at 30° C. the colonies were tested for the expression of β-galactosidase with X-Gal substrate (0.75 mg/ml). […] When the assays were performed with the HF7c strain, the interactions were assessed by the lift colony assay procedure and by growth in medium deficient in histidine, tryptophan and leucine.

[2] = target: T2, Goodpasture antigen binding protein (GPBP) (UniProt Q9Y5P4 1-624); test: yeast two-hybrid, β-galactosidase colony lift
T2 construct: Protein kinase; Fusion parts are not written as pieces
T2 sequence (looked up): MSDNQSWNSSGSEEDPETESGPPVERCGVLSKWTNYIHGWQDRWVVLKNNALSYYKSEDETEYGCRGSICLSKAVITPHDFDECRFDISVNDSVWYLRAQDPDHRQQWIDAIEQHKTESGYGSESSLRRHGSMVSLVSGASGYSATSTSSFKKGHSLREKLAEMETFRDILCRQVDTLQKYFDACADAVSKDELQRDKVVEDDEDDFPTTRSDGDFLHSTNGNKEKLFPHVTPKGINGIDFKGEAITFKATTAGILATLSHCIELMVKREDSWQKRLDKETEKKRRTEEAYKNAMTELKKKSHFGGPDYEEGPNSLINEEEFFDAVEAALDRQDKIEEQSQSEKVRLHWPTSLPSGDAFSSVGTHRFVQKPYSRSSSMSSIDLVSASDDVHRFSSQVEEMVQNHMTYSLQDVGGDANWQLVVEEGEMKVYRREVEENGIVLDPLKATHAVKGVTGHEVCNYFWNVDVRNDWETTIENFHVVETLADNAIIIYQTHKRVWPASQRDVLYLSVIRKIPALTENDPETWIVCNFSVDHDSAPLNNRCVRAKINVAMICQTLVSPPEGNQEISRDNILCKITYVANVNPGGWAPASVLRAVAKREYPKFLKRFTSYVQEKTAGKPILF
Method: Deletion mutants were obtained using specific primers and PCR, followed by cloning of the resulting cDNAs in the pGBT9 and pGAD424 vectors. The assays were performed in SFY526 or HF7c Saccharomyces cerevisiae strains, with pGBT9 as GAL4 binding domain vector and pGAD424 as GAL4 activation domain vector, by the lift colony assay procedure. Briefly, the yeast cells were co-transformed with constructs of both binding domain and activation domain vectors, and the co-transformants were selected in medium deficient in both tryptophan and leucine. After five days of incubation at 30° C. the colonies were tested for the expression of β-galactosidase with X-Gal substrate (0.75 mg/ml). […] When the assays were performed with the HF7c strain, the interactions were assessed by the lift colony assay procedure and by growth in medium deficient in histidine, tryptophan and leucine. For yeast three-hybrid system, we used the pBRIDGE vector, which allows the conditional expression of a third protein apart from the usual GAL4 binding and activation domain-fusion proteins of the two-hybrid system. In this case, the expression of GPBP or I-20 or GIP90 was driven by Met25 promoter, active in absence of methionine. In these experiments, the transformed SFY526 cells were plated in medium deficient in tryptophan, leucine and methionine, and subjected to the colony lift assay after five days at 30° C. […]

[3] = target: T2, Goodpasture antigen binding protein …; test: yeast two-hybrid

- binding result (pol κ): no binding
- binding result [2]: binds
B1: I-20 (other)
chain: RDEVIGILKAEKMDLALLEAQYGFVTPKKVLEALQRDAFQAKSTPWQEDIYEKPMNELDKVVEKHKESYRRILGQLLVAEKSRRQTILELEEEKRKHKEYMEKSDEFICLLEQECERLKKLIDQEIKSQEEKEQEKEKRVTTLKEELTKLKSFALMVVDEQQRLTAQLTLQRQKIQELTTNAKETHTKLALAEARVQEEEQKATRLEKELQTQTTKFHQDQDTIMAKLTNEDSQNRQLQQKLAALSRQIDELEETNRSLRKAEEE
notes: Tested as GAL4 domain fusion in yeast two-hybrid and three-hybrid; fusion parts are not written as pieces; also called 265 residue polypeptide I-20
- binding result [1]: binds

- binding result [3]: no binding
B2: GIP90 with deletion of the N terminal 240-residues (other)
chain: MVVDEQQRLTAQLTLQRQKIQELTTNAKETHTKLALAEARVQEEEQKATRLEKELQTQTTKFHQDQDTIMAKLTNEDSQNRQLQQKLAALSRQIDELEETNRSLRKAEEELQDIKEKISKGEYGNAGIMAEVEELRKRVLDMEGKDEELIKMEEQCRDLNKRLERETLQSKDFKLEVEKLSKRIMALEKLEDAFNKSKQECYSLKCNLEKERMTTKQLSQELESLKVRIKELEAIESRLEKTEFTLKEDLTKLKTLTVMFVDERKTMSEKLKKTEDKLQAASSQLQVEQNKVTTVTEKLIEETKRALKSKTDVEEKMYSVTKERDDLKNKLKAEEEKGNDLLSRVNMLKNRLQSLEAIEKDFLKNKLNQDSGKSTTALHQENNKIKELSQEVERLKLKLKDMKAIEDDLMKTEDEYETLERRYANERDKAQFLSKELEHVKMELAKYKLAEKTETSHEQWLFKRLQEEEAKSGHLSREVDALKEKIHEYMATEDLICHLQGDHSVLQKKTKSTRKQEQRFRKRD
notes: Deletion mutant in yeast two-hybrid (GAL4 domain fusion)
